Results published in PMC3431625 (The Journal of Biological Chemistry, 2012).

Tests used:
Collagen type I = Collagen type I (UniProt P02453;P02465); assay: ELISA
[1] = target: Mouse laminin isolated from Engelbreth-Holm-Swarm mouse sarcoma (mouse, UniProt P19137;P02469;P02468); assay: ELISA

Chain of Collagen type I (P02453 162-1217, chain 1 of 2): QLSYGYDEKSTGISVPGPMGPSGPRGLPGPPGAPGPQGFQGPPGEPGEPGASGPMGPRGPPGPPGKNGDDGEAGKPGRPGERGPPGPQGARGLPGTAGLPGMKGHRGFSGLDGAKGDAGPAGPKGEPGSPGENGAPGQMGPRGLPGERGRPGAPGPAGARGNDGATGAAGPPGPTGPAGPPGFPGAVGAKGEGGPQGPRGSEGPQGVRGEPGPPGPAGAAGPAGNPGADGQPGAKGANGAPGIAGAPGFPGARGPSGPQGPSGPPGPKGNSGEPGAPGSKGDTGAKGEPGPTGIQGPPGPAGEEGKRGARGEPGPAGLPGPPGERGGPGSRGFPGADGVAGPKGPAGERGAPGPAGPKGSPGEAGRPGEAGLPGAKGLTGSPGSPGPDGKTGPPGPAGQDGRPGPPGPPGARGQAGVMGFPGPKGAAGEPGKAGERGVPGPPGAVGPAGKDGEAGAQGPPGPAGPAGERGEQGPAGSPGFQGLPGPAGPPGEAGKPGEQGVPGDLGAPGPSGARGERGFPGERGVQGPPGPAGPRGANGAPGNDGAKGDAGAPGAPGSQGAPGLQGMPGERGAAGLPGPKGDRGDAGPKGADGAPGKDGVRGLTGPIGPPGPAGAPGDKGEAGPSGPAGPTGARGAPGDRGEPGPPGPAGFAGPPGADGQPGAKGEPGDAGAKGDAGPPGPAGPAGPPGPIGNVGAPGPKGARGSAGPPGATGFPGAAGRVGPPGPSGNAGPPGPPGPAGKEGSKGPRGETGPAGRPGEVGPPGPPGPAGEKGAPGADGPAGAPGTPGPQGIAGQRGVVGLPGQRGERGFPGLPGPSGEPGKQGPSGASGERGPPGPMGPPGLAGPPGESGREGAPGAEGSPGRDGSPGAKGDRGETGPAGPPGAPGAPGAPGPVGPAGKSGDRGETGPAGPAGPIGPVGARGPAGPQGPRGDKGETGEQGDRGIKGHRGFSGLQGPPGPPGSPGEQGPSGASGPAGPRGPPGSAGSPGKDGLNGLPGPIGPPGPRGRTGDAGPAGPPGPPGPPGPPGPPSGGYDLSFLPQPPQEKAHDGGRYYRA
Chain of Collagen type I (P02465 80-1117, chain 2 of 2): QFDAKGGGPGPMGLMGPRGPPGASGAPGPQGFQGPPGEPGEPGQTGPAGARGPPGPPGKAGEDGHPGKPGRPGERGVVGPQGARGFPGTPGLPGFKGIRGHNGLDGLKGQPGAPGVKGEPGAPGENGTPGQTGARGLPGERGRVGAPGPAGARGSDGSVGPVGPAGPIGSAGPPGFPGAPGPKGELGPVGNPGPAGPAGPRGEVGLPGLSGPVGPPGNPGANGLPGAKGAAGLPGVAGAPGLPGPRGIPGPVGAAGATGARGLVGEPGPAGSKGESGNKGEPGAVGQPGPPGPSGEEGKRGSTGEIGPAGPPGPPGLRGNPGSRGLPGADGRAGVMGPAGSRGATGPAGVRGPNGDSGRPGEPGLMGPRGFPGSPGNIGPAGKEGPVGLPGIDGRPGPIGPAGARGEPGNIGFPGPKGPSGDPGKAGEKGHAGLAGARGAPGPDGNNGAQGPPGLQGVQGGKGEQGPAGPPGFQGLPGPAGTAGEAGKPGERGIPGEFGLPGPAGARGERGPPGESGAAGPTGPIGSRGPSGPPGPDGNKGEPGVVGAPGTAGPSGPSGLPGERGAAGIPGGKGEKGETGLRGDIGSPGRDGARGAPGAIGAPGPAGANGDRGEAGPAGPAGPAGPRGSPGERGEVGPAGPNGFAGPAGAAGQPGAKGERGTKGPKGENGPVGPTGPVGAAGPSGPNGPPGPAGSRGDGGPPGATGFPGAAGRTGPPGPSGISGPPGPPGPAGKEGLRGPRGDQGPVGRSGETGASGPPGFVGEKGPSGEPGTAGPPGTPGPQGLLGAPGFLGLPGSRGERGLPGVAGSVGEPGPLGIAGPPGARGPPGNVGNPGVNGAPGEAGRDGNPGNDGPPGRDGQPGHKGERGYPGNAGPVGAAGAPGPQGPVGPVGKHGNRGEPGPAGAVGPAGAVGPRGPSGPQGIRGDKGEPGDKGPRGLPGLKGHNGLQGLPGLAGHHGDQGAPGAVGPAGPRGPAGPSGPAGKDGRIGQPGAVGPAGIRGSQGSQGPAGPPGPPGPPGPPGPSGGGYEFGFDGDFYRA

B1: Recombinant bovine opticin (natural protein)
chain: ASLSEEREGDPYAILHLGDYVLSLDNYDEVIDPSNYDELIDYGDQLPQVKGTSLASLTRTRFTQSTEAARTLPSNPTTARPPTLGLLAAPANHGLPTCLICVCLGSSVYCDDADLENIPPLPQTTAYLYARFNRISHIRAGDFKGLTKLKRIDLSGNSISSIDDKALRLLPALRDLILPENKLVALPTLPTSIEVLDVRMNRLQSSGIQPEAFRALEKLQFLYLADNLLDAIPPSLPLSLRSLHLQNNMIETMQRDAFCDAEEHRHTRRPLEDIRLDGNPINLSLFPSAYFCLPRLPTGRFV
For B1, the Kd (Collagen type I) was 60 nM and the Kd [1] was 40 nM.
